In patent US6713276B2, “Modulation of Aβ levels by β-secretase BACE2” (Scios, Inc., priority 2000, dated 2004):

Test system: APP751sw processing in HEK293T cells
Experiment: pulse-chase / pulse-labeling and immunoprecipitation of APP CTFs, Aβ and p3 in HEK293T cells
Assay type: cell-based, human
Method: Forty eight hours post-transfection, HEK293T cells were labeled for 15 minutes with 200 μCi Promix L [^35S] in vitro cell labeling mix (Amersham) and chased for up to 90 minutes according to standard procedures. APP CTFs were immunoprecipitated with antibodies 369 (Cai et al., Science 259: 514-516 [1993]). For immunoprecipitations of Aβ and p3 from conditioned medium, HEK293T cells were labeled for 5 hours with 300 μCi Promix L [^35S] in vitro cell labeling mix (Amersham) 48 hours post-transfection. Aβ40 and Aβ42 as well as the corresponding p3 species were immunoprecipitated with monoclonal antibodies 1702.1 and 108.1, respectively (Higaki et al., J. Med. Chem. 42: 3889-3898 [1999]).
To analyze the metabolism of APP as a consequence of BACE or BACE2 overexpression we performed a parallel pulse-chase experiment (FIG. 2e). HEK293T cells transfected as above were pulse-labeled and chased for up to 90 minutes and APP and CTFs were immunoprecipitated. […] An alternative β-secretase related cleavage product (β′-CTF) was also formed consistent with previous reports (Vassar et al., Science [1999] ibid; Higaki et al., Neuron 14: 651-659 [1995]). Consistent with its β-secretase activity, BACE2 overexpression led to a significant initial increase in β-CTF levels compared to mock-transfected cells. […] In general, BACE2 might have increased the overall APP turnover. To determine whether BACE affected γ-secretase activity, we determined whether p3 could be formed. We transfected HEK293 cells as in FIG. 2e and labeled them for 5 hours with Promix L [^35S]. Aβ from conditioned medium was then precipitated with antibodies directed against the C-terminal residues of Aβ40 and Aβ42, respectively, that also recognize p3 (FIG. 2f). […] Taken together, BACE2 expression leads to alternative processing of APP that precludes Aβ formation.

[1] = HEK293 cells, labeled for 5 hours, conditioned medium

B1: BACE2: human aspartyl protease, close homolog of BACE (SEQ ID NO: 2), expressed from pcDNA3.1(−)/BACE2 in transfected cells (protein)
chain: MGALARALLLPLLAQWLLRAAPELAPAPFTLPLRVAAATNRVVAPTPGPGTPAERHADGLALALEPALASPAGAANFLAMVDNLQGDSGRGYYLEMLIGTPPQKLQILVDTGSSNFAVAGTPHSYIDTYFDTERSSTYRSKGFDVTVKYTQGSWTGFVGEDLVTIPKGFNTSFLVNIATIFESENFFLPGIKWNGILGLAYATLAKPSSSLETFFDSLVTQANIPNVFSMQMCGAGLPVAGSGTNGGSLVLGGIEPSLYKGDIWYTPIKEEWYYQIEILKLEIGGQSLNLDCREYNADKAIVDSGTTLLRLPQKVFDAVVEAVARASLIPEFSDGFWTGSQLACWTNSETPWSYFPKISIYLRDENSSRSFRITILPQLYIQPMMGAGLNYECYRFGISPSTNALVIGATVMEGFYVIFDRAQKRVGFAASPCAEIAGAAVSEISGPFSTEDVASNCVPAQSLSEPILWIVSYALMSVCGAILLVLIVLLLLPFRCQRRPRDPEVVNDESSLVRHRWK
B1 was tested, and the “APP CTF turnover (β-CTF, β′-CTF, α-CTF)” value (HEK293T, APP751sw, 15 min pulse, chase up to 90 minutes) was “strong accumulation of a cleavage product that based on size and gel migration corresponded to α-CTF”, the “formation of Aβ40 and Aβ42 (immunoprecipitation)” value [1] was “interfered with the formation of both Aβ40 and Aβ42” and the p3 formation [1] was “p3 levels were not significantly affected”.
